Test results reported in publication doi:10.1101/2024.03.26.586525 (bioRxiv, 2024).
Like-named read-outs stand apart in the source and are kept apart here.

Key:
cryo-EM structure [1] = target: the molecule itself; experiment: cryo-EM structure
cryo-EM structure [2] = target: the molecule itself; experiment: cryo-EM structure; remark: listed apart in the source

Protein	stoichiometry N (cryo-EM structure [1])	stoichiometry N (cryo-EM structure [2])
acetyl-coenzyme A synthetase 1 (Acs1) (enzyme, S. cerevisiae (endogenous in SK1 cells), UniProt Q01574 1-713, looked up) MSPSAVQSSKLEEQSSEIDKLKAKMSQSAATAQQKKEHEYEHLTSVKIVPQRPISDRLQPAIATHYSPHLDGLQDYQRLHKESIEDPAKFFGSKATQFLNWSKPFDKVFIPDPKTGRPSFQNNAWFLNGQLNACYNCVDRHALKTPNKKAIIFEGDEPGQGYSITYKELLEEVCQVAQVLTYSMGVRKGDTVAVYMPMVPEAIITLLAISRIGAIHSVVFAGFSSNSLRDRINDGDSKVVITTDESNRGGKVIETKRIVDDALRETPGVRHVLVYRKTNNPSVAFHAPRDLDWATEKKKYKTYYPCTPVDSEDPLFLLYTSGSTGAPKGVQHSTAGYLLGALLTMRYTFDTHQEDVFFTAGDIGWITGHTYVVYGPLLYGCATLVFEGTPAYPNYSRYWDIIDEHKVTQFYVAPTALRLLKRAGDSYIENHSLKSLRCLGSVGEPIAAEVWEWYSEKIGKNEIPIVDTYWQTESGSHLVTPLAGGVTPMKPGSASFPFFGIDAVVLDPNTGEELNTSHAEGVLAVKAAWPSFARTIWKNHDRYLDTYLNPYPGYYFTGDGAAKDKDGYIWILGRVDDVVNVSGHRLSTAEIEAAIIEDPIVAECAVVGFNDDLTGQAVAAFVVLKNKSSWSTATDDELQDIKKHLVFTVRKDIGPFAAPKLIILVDDLPKTRSGKIMRRILRKILAGESDQLGDVSTLSNPGIVRHLIDSVKL	3	
aldehyde dehydrogenase 4 (Ald4) (enzyme, S. cerevisiae (endogenous in SK1 cells), UniProt P46367 25-519, looked up) SHLPMTVPIKLPNGLEYEQPTGLFINNKFVPSKQNKTFEVINPSTEEEICHIYEGREDDVEEAVQAADRAFSNGSWNGIDPIDRGKALYRLAELIEQDKDVIASIETLDNGKAISSSRGDVDLVINYLKSSAGFADKIDGRMIDTGRTHFSYTKRQPLGVCGQIIPWNFPLLMWAWKIAPALVTGNTVVLKTAESTPLSALYVSKYIPQAGIPPGVINIVSGFGKIVGEAITNHPKIKKVAFTGSTATGRHIYQSAAAGLKKVTLELGGKSPNIVFADAELKKAVQNIILGIYYNSGEVCCAGSRVYVEESIYDKFIEEFKAASESIKVGDPFDESTFQGAQTSQMQLNKILKYVDIGKNEGATLITGGERLGSKGYFIKPTVFGDVKEDMRIVKEEIFGPVVTVTKFKSADEVINMANDSEYGLAAGIHTSNINTALKVADRVNAGTVWINTYNDFHHAVPFGGFNASGLGREMSVDALQNYLQVKAVRAKLDE		4
